This note sets out measurements from a protein production outcome set (Wang et al. 2014).

This data set in a line: label from the status in PepcDB records.
Turning to “MNASTSPLPASDQTLRGILLICAAVFLFASHDGLSKFLSGFYPIVMVVWARYLVHTLLMVAVFVPRNGLAVIRSRRPLMQLARALCLIGTSLFFTTGLRYLPLAEATAVNFLAPLLVTALSVPLLKEKVSLGQWLAVLTGFIGVLFIVRPGGALFTPAALFPLGSALCFGLYQLLTRMLANSDSPTTSNFLAGIFNTLIMSLLVPFFWQTPSLLHGLMMIALGGCGMGGHLLLTQAFRHAPPATLAPFSYGQIIFAGLLGLLVFGHVPDAWALLGILVICASGLVVAWRRGR”, the protein production result is reported as “failed”.
“MSTPDATSPGSQQQDVFDFLGRGAGDAPVVRIDTHGAAVFLEGNRAMKIKRAVKFPFLDYSTLAKRKIACEQELEVGHRFAPTIYRRVVPITRTDKGALQIGGEGPAVEWAVEMMRFDDSATLDHLARAGSLGPGLIDAVADAIAASHQAAPLAATAPWGASIEPILADDTNELAAGGFAAADVAALDNGSRNALGRLRPLLEQRGVAGFVRWCHGDLHLANIVVIDGKPTLFDAIEFDPALASVDVLYDLAFPLMDLLHYGRGSDSAQLLNRYLAVTNADNLDALSALPLLLSMRAAIRAKVMLARPAADETIRRANRAIAESYFELALRLIAPPPPRLIAVGGLSGTGKSVLARALSGNVPPLPGAVVLRSDVARKRLHGVADTERLPATAYTTEVTEAVYRGLVERAAHILKQGHSVIVDAVFSKPEERDAIESVAAGLGISFHGLFLTADLATRVARVAGRTADASDATPEIVRQQQSYAQGVIGWTSIDAGGTPAETLSRAVAALPQTAQVCSTLEHHHHHH”: the protein production entry is listed as “not failed”.
Turning to “DNKELQKLTEDISETYFKKPFRHQALFNDRLKTTGGRYLLTSHNIELNRKYLIEHGREELIGIIKHELCHYHLHLEGKGYKHRDRDFRMLLQQVNAPRFCTPLKKKAENKKTYMYICTTCGQQYIKKRAMNPDRYRCGKCRGKIKRI”, the protein production entry is “not failed”.
To “MNGAVDLVIRFLLFAMLHSIAALPGVQQRIGNMFPRGFRFYRAAYNLAALVTFGWVMAAWPLSPVIYLVPGSASLAFHAVQAFTLLQMIRCVSRTGMADFLGIRHPSREDAAHELVTTGCYGTVRHPLYTLAMVFCLFNPLMTVKWLLFTLMAGGYFVMGAVVEERRLEREFGDAYRSYRRQVPMLIPRRRKPVAKE” belongs “failed”.
On to “MQGFTAYLVGFAIVAGFAVALGFIFGIFNQIVAQLNTDPNNPMISQEFVDAINLAQSLGGTGLTLAIAALIVGLAMLLIAVIRSYSGV”, for which the protein production entry was “failed”.
Take “MMHHALHIKNGIVIDPKNGVKAEKMDIFVKNGKIVEESEVKGEDVKVIDANNKLVVAGGVDMHAHIAGSKINTGRTMRPEEMRVVRNIAGKFRAAVGRVLLTSPLEHHHHHH”: the protein production result is “failed”.
To “MSADYPRDLIGYGNNPPHPHWPGDARIALSFVLNYEEGGERCVLHGDKESEAFLSEMVAAQPLQGVRHMSMESLYEYGSRAGVWRLLKLFKRRNVPLTVFAVAMAAQRNPEVIRAMVADGHEICSHGYRWIDYQYMDEAQEREHMLEAIRILTELTGQRPVGWYTGRTGPNTRRLVMEEGGFLYDSDTYDDDLPYWDPASTAEKPHLVIPYTLDTNDMRFTQVQGFNNGEQFFQYLKDAFDVLYEEGATAPKMLSIGLHCRLIGRPARMAALERFIQYAQSHDKVWFARREDIARHWHREHPFQETEA” belongs “not failed”; to “MLTKVIEQAKIDHFTKWFERADKIVIVSHVSPDGDAIGSSLGLYHFLDSQEKTVNVIVPNAFPDFLRWMPGSKDILLYDRYKDFADKLIAEADVICCLDFNALKRIDEMADAVAASPARKVMIDHHLYPEEFCKITMSYPKISSTSELIFRLICRMGYFSDISKEGAECIYTGMMTDTGGFTYNSNNREIYFIISELLSKGIDKDDIYRKVYNTYSESRLRLMGYVLSNMVVYSDYNAALISLTKEEQSKFDYIKGDSEGFVNIPLTIKNVCFSCFLREDTEKPMIKISLRSVGTFPCNQLAAEFFNGGGHLNASGGEFFGTIEEAKAVFEQALEKYKPLLTAKSLEHHHHHH”, “not failed”.
To “MKKYILIGLGGAIGAILRCFIRNTKIPVYKGEFPISTLMINLSGAFILAVILITANEIWSFNEEIRLGIATGFVGAYTTFSTMCKETIILMNKNLYFLAFCYVTVSVVFGLLFAYFGALSARKILSRLLKVRKEDEKAS” belongs “failed”.
With “MRTATSTSPATGTPAPVPSRTPDVTVTVIVYNDAGRLPRAVASALRQSHANIEVVISDDHSTDATEEVARELAAHDPRVVYLRLPENSGGCSAPRNRALEIARAPYLMFLDSDDELPERAVEVLLAAHRERDLDFAMGAVHRIREDGGRRTTWMPHLVAERRTLDGIEADPRLLFEHLSTSKMYARAFLDRHGLRFPEGIHYEDQLFSAQAYCLAKTFTVVPEPVYRWYIAPYADADSASISNQRHKLTNVRDRVHVQRLIDAFLAESGHEALREDKDFKFLKHDFRMYAGDLPYRDDTWLASFADLMNPYLDTLAEGAYARLPRAERVVLRLLRDRRLSDVRTAARGLGHDVAPRRVTPDEQSGRVYWGEEVPASPESRRELDLTDLDLDTRPFFTALLRHEITEITRGPGASVDLTVRTYDPALRLPVGPQRAVLHLSPGPRRLTVPFRLSPVRPGLFEGRVRLDLAAARLPLHGFAGTRHPVLRLRHRGRTHTGILLAPLAFPPLTARVPYRTGLTPHRVTLRPEGHNPGRLQITWQPVGTTAKILGPAARRLSTPRTRRAARLLSNILRLEHHHHHH”, the protein production entry is given as “not failed”.
As to “MFSLNTLLNPPDNLSVGEIILISLILGMLHGVTPDEHTWPITFSYAIGKYSTKGGMKAGFLFSLGFTIQRAFLTTIGFLGLAAIYNQYNLDGPVYAVVGIVMAIAGSYILKGKYIHLPIDALFKSKQHTEEAGKVKDIPIKMTIVHGLVAGFGFGAYATIITFVLAPQLPSVVYAPLPGLFFGLGTMVMQIIFGMIFGNILRLKKMTEEQLSFIARKTAGRVLYYGGLVFLIVGLLIIVLPAIDNFAISTGNPIPNLDAINIGFLLVISVVGVIGISSILYGFREAKRLAKHI”, the protein production result was “failed”.
For “MKDETNIKTIALAIVLIAGYNVYTSQQDVKMFSLTLANIEALAMDETTQCDNANGYRRILEGDERIYDCCYLEKVGKLEHHHHHH”, the protein production result is “failed”.
Take “EDRNFVYLKRQVPMDVADKIKQMALPGIHQQPESRRYYPEGEVTAHIVGFNNVEDQGQEGVELTFNQQLSGQPGSRRVIKDRLGRVIEDVQAVTLPVDGRDLRLSID”: the protein production result is given as “failed”.
As to “MVTAAQPRSPSPSPSSTAAAGQVTRRVPAVRHLGPNWYACVMGTAIVGTAGAALPGHVAGLRAACTAVWALSLVLLVVLLTARSLHWLHHRDQARAHLLDPSAAPFYGCLSMALLAVGGGALALGRDWIGTPAAVALDTVLFTAGTVIGLAAAVAVPYLMAVRHRVEPGQASPVWLLPLVAPMVSAAVGPLLVPHLPAGQPRETLLLACVAMFGMSLFATLVTLPVVFGRLLTGGPLPLALTPSLFLVLGPLGQSTTAVGKFADVAPGVVPGPYAEGFAVFAVLYGVPVTGFALMWLALAAAHVVRARRAGMRFSMTWWSFTFPVGTCVTGAEALARETGLVVYDGLTVALYALLVAAWAVAAVHTARGLFSGVLLAGPRPAPGAPRPATARTT”, the protein production result was “failed”.
Take “MATDTAERRIAHVRGVTVTAIACLAGVAAAVVSAAVADGAGDTLGLYVLVGGIIVQFPLLRVLEMAGLQLDVDDFGAKDYLYIAFMTFAMWFVCWTVLLTTGASV”: the protein production result is “failed”.
Regarding “MGINEIIMYIMMFFMLIAAVDRILSQFGGSARFLGKFGKSIEGSGGQFEEGFMAMGALGLAMVGMTALAPVLAHVLGPVIIPVYEMLGANPSMFAGTLLACDMGGFFLAKELAGGDVAAWLYSGLILGSMMGPTIVFSIPVALGIIEPSDRRYLALGVLAGIVTIPIGCIAGGVIAMYSGVQINGQPVEFTFALILMNMIPVLIVAVLVALGLKFIPEKMINGFQIFAKFLVALITIGLAAAVVKFLLGWELIPGLDPIFMAPGDKPGEVMRAIEVIGSISCVLLGAYPMVLLLTRWFEKPLMNVGKLLNVNNIAAAGMVATLANNIPMFGMMKQMDTRGKVINCAFAVSAAFALGDHLGFAAANMNAMIFPMIVGKLIGGVTAIGVAMMLVPKDDAAQVKTEAEAQS”, the protein production entry was “failed”.
Turning to “MGHHHHHHSHMIESGIWSRMSEMIRSSGHSHHCSPQEYRFLPPVGDDDLPGDLQSLSWLTAVDVPRLQQMANGRIDLGSSGVTHPHPGALAGTADLHVGAAPRPLLRRSQTAVVPRGVLGLSPIGNHRASAEQMNQFPAGGQASSGLQEMPQLYSPATQIPFPLPLGSQQCPPAGLYGSPFSARPSYPQAHGAMHASQEPHPKHYPKPIYSYSCLIAMALKNSKTGSLPVSEIYSFMKEHFPYFKTAPDGWKNSVRHNLSLNKCFEKVETKSSGSSRKGCLWALNLARIDKMEEEMHKWKRKDLAAIHRSMANPEELDKLISDRPESCRRPGKRGEPKAPMLTHATTVAMAHSCLAISQLPPKPLMTLSLQSVPLHHQLQPQAHLAPDSPAPAQTPPLHALPSLSPGPLPQPAMGRVPGDFLNINSDMNTEVDALDPSIMDFALQGNLWEEMKEDSFSLDTLEAFGDSPLGCDLGAPSLTPVSGNSDQSFPDVQVTGLYAAYSTAADGVAPSAANSAQYLGTPGNKPIALL”, the protein production result was “failed”.
As to “MDALVSTKANSIAYQRSTVIIPAYNEEKRLMPVLYELCEYIRSNSLEWKVMVSIDGDDGTESNVKIMMQEYSFLSYSKGKGRGGKGAAIKRAITSATGEFVILMDADGSVPLKEIVKALDLTNYYDLIIFDRYSNRGNRIPFIRRFPSRGFNKLVRIFLGLKINDTQCGYKIIKREYAQRAFNKITISNAFFDVALLYYLKKERAKYIEIPVEYNYDRNSKFHVVELVLGEGISLIAFRIRNSRFYKYVPEKLISLYYRKFRWILEHHHHHH”, the protein production result is “not failed”.
In the case of “MKQESPRLENTTPVEEKMTRSLLDHLTRLKPTRLVIFTSVFLSCLLLSLGFVFLQPATYQSYATLLTVAKTAIDQASREADIQHVAIQKQVLLGSELLTETADRLRKGDDAEAGINLTHAAIRDMLDVRPVDDTNLVEMVAEGNEPGLLPRLINTWIDVYLDARSAEIARSKGSTVEMMQEELVALTEKIQQKRLELEQFRQHNEIVSTERQDNEALARLKGLTDSLNKASEEEVKAKARLDTIRKSIERGQIVVPNEDTRTLSALERRAQELREQLEELDRQYTREYMALSPDLKVIPDKLRALEDEIQHIRRKGQTVVVSDAEQEYAAARQATRSIQEQLDQHRKKAAEFTARFTEHDALKSDLEELEQLYRDTQARLAQIEAQHTGKYPYVDVIERAFLPHHPIGPDYLWNAMIATLASLLLGLTAIWILEFLMHKEQEKLAIHLSGIHLHNQDNLPHSAFDVLPSTSVNLPRQPAQALEHTSMNGLTPQQIATLFQTANIREKQLLLLLLSGLTPDEITHLQQDDIDLEHNSLTVRSVPARTIPLHPVLAALYGKYGHCLTDPAGNRLNQEELEALLICLQIDADLSADNQISAEILRQTYILYLVRQGIRLGDLESVTGYISPTELSGYGTYAPAGTRYPVESVNLFYPIDYKQDV” it was “failed”.
Take “MANAIRLPPEAYPMSIAAQKNDDDRQARALAALAEKPDGIVEAIAAKAEVAPAEILAILPQGAAVSAPADRFDAIWNEMRGWGEILMIVQTGDIVLEVPGHLPEGTESHGWFNIHGDSPIGGHIKKDNCAAITFVDRGFHGRRSCSVWFMNAAGGAMFKIFVRRDENKELLAGQLAKFEELRDGFRGLEHHHHHH”: the protein production result was “not failed”.
On to “MYRDIATKLVAAIQDGIFTVKLPTEAQLMERYQASRNTIRKAIDLVYQQGLLRRVQGSGYYITNIQLQHKTVVNLSARSLFNSHVHPRTLTSKILTFDTIHGDSALSRKLNIPVDEELYRIIRLRYWHDQLYCLEKAYYLRSVVPYLSTEAVNTSIWDFINEAYGIGIANSDDYLSLTNLNKEEAELMNLAQGATHLALDSCNYYKNNGLLDFSHTIFVYPDLALYFHTTNLANN”, for which the protein production entry is given as “failed”.
